Measurements reported in patent publication US20200123265A1 (AGENUS, published 2020).

T1: V1M cynomolgus GITR, expressed on 1624-5 cells (cynomolgus, UniProt Q9Y5U5 26-241 (human entry))
T1 chain: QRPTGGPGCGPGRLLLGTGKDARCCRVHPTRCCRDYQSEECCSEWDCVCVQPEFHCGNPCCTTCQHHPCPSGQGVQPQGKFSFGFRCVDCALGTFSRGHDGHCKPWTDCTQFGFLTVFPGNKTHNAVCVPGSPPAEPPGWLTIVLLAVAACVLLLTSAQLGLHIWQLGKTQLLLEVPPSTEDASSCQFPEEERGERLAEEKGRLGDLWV

T2: V1M/Q62P/S63G cynomolgus GITR, expressed on 1624-5 cells (cynomolgus, UniProt Q9Y5U5 26-241 (human entry))
T2 construct: V1M lies in the signal peptide and is left out with it; also called mutant cynomolgus GITR V1M/Q62P/S63G
T2 chain: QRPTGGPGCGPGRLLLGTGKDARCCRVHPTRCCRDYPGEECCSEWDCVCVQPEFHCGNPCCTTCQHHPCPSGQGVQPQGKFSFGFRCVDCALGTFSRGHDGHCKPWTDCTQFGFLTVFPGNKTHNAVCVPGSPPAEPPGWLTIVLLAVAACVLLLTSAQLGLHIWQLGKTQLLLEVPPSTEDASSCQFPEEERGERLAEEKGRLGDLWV

T3: GITR antigen (R&D systems, disulfide-linked homodimer; 689-GR) (human, UniProt Q9Y5U5 26-161, R-PE labeled in the Luminex assay; amine-coupled to a CM5 chip in the SPR assay)
T3 construct: Bought reagent; also called R-PE labeled GITR antigen
T3 sequence (looked up): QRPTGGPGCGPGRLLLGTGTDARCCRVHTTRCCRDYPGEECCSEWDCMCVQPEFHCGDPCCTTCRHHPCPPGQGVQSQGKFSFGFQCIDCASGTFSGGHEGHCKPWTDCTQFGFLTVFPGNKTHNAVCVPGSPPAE

T4: human GITR D60A mutant, expressed on 1624-5 cells (human, UniProt Q9Y5U5 26-241)
T4 chain: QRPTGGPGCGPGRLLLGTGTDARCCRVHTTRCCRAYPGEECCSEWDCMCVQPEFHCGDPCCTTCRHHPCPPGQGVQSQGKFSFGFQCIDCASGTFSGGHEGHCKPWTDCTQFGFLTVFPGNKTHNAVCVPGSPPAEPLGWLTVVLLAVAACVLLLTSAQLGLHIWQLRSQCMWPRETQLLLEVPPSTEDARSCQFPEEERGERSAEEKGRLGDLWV

T5: human GITR G63A mutant, expressed on 1624-5 cells (human, UniProt Q9Y5U5 26-241)
T5 chain: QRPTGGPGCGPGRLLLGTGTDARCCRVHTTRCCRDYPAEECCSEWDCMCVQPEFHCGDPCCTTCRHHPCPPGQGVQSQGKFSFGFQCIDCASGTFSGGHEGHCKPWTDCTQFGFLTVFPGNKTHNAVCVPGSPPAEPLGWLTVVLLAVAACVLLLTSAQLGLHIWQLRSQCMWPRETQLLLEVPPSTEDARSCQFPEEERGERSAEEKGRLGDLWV


Tests used:
[1] = target: T1, V1M cynomolgus GITR, expressed on …; assay: flow cytometry on 1624-5 cells
Description: (§1) As further evidence for the binding characteristics of the anti-GITR antibodies, the binding of the antibodies to cynomolgus GITR was compared. The immature protein of cynomolgus GITR comprises the amino acid sequence of SEQ ID NO: 44. To increase protein expression, the first residue of the signal peptide of cynomolgus GITR was replaced by methionine, generating V1M cynomolgus GITR. A mutant cynomolgus GITR V1M/Q62P/S63G, where the amino acid residues at the positions 62 and 63 (GlnSer), numbered according to SEQ ID NO: 44, were replaced by the corresponding residues in human GITR (ProGly), was then generated. FIG. 7A is a sequence alignment between human GITR, V1M cynomolgus GITR, and V1M/Q62P/S63G cynomolgus GITR.

[2] = target: T2, V1M/Q62P/S63G cynomolgus GITR, …; assay: flow cytometry on 1624-5 cells, 2 µg/ml
Description: as §1

[3] = target: T3, GITR antigen (R&D systems, …); assay: SPR (BIAcore), GITR immobilized on CM5 chip, antibody at 300 nM, in tandem binning
Procedure: (§2) For epitope binning using surface plasmon resonance the “in tandem approach” was used (Abdiche, Y N et al., Analytical Biochemistry 386: 172-180 (2009)). For that purpose different chip surfaces were generated on a CM5 sensor chip (GE Healthcare, Series S CM5, BR-1005-30) using immobilization of different densities of GITR antigen (R&D systems, disulfide-linked homodimer; 689-GR). Flow cell 2 contained GITR antigen in low density (667 RU), medium density was assessed in flow cell 3 (1595 RU) and in flow cell 4, high density was achieved (4371 RU). In flow cell 1, ovalbumin (1289 RU, Pierce ThermoFisher 77120) was immobilized for reference. Immobilization was performed according to a standard protocol from the manufacturer (GE Healthcare) for amine coupling (activation of surface with 0.4 M EDC and 0.1 M NHS, GE Healthcare Amine coupling kit, BR-1000-50). Unreacted groups were inactivated with 1 M ethanol-amine-HCA, pH8.5. Afterwards anti-GITR antibodies were run through the different surfaces at a concentration of 300 nM (45 μg/ml) for 240 seconds at 5 μl/min. […] A dissociation time of 60 seconds was included before adding the competing antibody (300 nM, 5 μl/min).

[4] = target: T4, human GITR D60A mutant, expressed on …; assay: flow cytometry on 1624-5 cells, 2 µg/ml, MFI ratio (monoclonal/polyclonal) of mutant against wild type
Procedure: (§3) All the mean fluorescence intensity (MFI) values were calculated as the mean of two measurements.
(§4) The percentages shown in FIG. 6B are the percentages of GITR positive cells in each plot.

[5] = target: T5, human GITR G63A mutant, expressed on …; assay: as above
Procedure: as §3, §4

[6] = target: T3, GITR antigen (R&D systems, …); assay: Luminex suspension array, 20 µg/ml competitor pre-incubated with R-PE labeled GITR; captured antibody 231-32-15
Procedure: The bead mixture and the antigen/antibody mixture were mixed 1:1 (20 μl from each) and incubated for one additional hour under shaking conditions (20° C., 650rpm), Directly before the measurement, 40 μl of assay buffer was added to each well and analysis was performed using a Luminex® 200 system (Millipore) and a readout of 100 beads in 48 μl sample volume. Binding was determined using the […] values of the non-competed control (100% binding, only assay buffer as competing compound).

[7] = target: T3, GITR antigen (R&D systems, …); assay: SPR (BIAcore), GITR immobilized on CM5 chip, antibody at 300 nM, applied after 231-32-15
Procedure: as §2

Row | binding result [1] | binding result [2] | binding result [3] | percentage of reduction in binding relative to wild type GITR [4] | percentage of reduction in binding relative to wild type GITR [5] | binding result [6] | binding result [7] | percentage of increase in binding relative to wild type GITR [5] | Binder
1 | no binding (tested: 2 µg/ml) | binds | binds | 82% | 37% |  |  |  | chimeric parental 231-32-15 antibody (antibody, V domains shown, elsewhere it was used as soluble antibody) VH: QVQLLQSGTELVRPGVSVKISCKGSGYTFTDYAMYWVKQSHAKSLEWIGVIRTYSGDVTYNQKFKDKATMTVDKSSSIAYMELARLSSEDSAIYYCAKSGTVRGFAYWGQGTLVTVSS VL: DIVMTQSPSSLTVTAGEKVIMSCKSSQSLLNSGNQKNYLTWYQQKPGQPPKLLIYWASTRESGVPDRFTGSGSGTDFTLTISSVQAEDLAVYHCQNDYSYPYTFGGGTKLEIK
2 | no binding (tested: 2 µg/ml) | binds |  | 88% | 59% | binds |  |  | pab1876 (antibody, human IgG1, V domains shown, Human IgG1 with T109S (Kabat) in the light chain constant domain) VH: QVQLVQSGAEVKKPGASVKVSCKGSGYTFTDYAMYWVRQAPGQGLEWIGVIRTYSGDVTYNQKFKDRATMTVDKSISTAYMELSRLRSDDTAVYYCAKSGTVRGFAYWGQGTLVTVSS VL: DIVMTQSPDSLAVSLGERATINCKSSQSLLNSGNQKNYLTWYQQKPGQPPKLLIYWASTRESGVPDRFSGSGSGTDFTLTISSLQAEDVAVYHCQNDYSYPYTFGQGTKLEIKR
3 |  |  |  |  |  | binds |  |  | pab1875 (antibody, V domains shown) VH: QVQLVQSGAEVKKPGASVKVSCKGSGYTFTDYAMYWVRQAPGQGLEWIGVIRTYSGDVTYNQKFKDRATMTVDKSISTAYMELSRLRSDDTAVYYCAKSGTVRGFAYWGQGTLVTVSS VL: DIVMTQSPPTLSLSPGERVTLSCKSSQSLLNSGNQKNYLTWYQQKPGQAPRLLIYWASTRESGIPARFSGSGSGTDFTLTISSLQPEDFAVYHCQNDYSYPYTFGQGTKLEIK
4 |  |  |  | 10% |  |  | binds | 62% | m6C8 (antibody, V domains shown, Generated based on the variable regions of antibody 6C8 of WO 06/105021; also called murine antibody 6C8) VH: QVTLKESGPGILKPSQTLSLTCSFSGFSLSTSGMGVGWIRQPSGKGLEWLAHIWWDDDKYYNPSLKSQLTISKDTSRNQVFLKITSVDTADAATYYCARTRRYFPFAYWGQGTLVTVSS VL: DIVMTQSQKFMSTSVGDRVSVTCKASQNVGTNVAWYQQKPGQSPKALIYSASYRYSGVPDRFTGSGSGTDFTLTINNVHSEDLAEYFCQQYNTDPLTFGAGTKLEIK
